Assay results reported in patent publication US12338277.

Tests used:
Assay in all cases: cell-based or functional assay
[1] = target: HIV-1 envelope of pseudovirus 3365.v2.c2 (HIV-1)
[2] = target: HIV-1 Env of pseudovirus 7030102001E5(Rev-) (HIV-1)
[3] = target: HIV-1 envelope of pseudovirus X1632_S2_B10 (HIV-1)
[4] = target: HIV-1 Env of pseudovirus A07412M1.vrc12 (HIV-1)
[5] = target: HIV-1 envelope of pseudovirus R2184.c04 (HIV-1)
[6] = target: HIV-1 Env of pseudovirus 3415.v1.c1 (HIV-1)
[7] = target: HIV-1 envelope of pseudovirus C4118.c09 (HIV-1)
[8] = target: HIV-1 Env of pseudovirus 3103.v3.c10 (HIV-1)
[9] = target: HIV-1 Env of pseudovirus R1166.c01 (HIV-1)
[10] = target: HIV-1 Env of pseudovirus 246F C1G (HIV-1)
[11] = target: HIV-1 envelope of pseudovirus CNE30 (HIV-1)
[12] = target: HIV-1 Env of pseudovirus C2101.c01 (HIV-1)
[13] = target: HIV-1 envelope of pseudovirus C1080.c03 (HIV-1)
[14] = target: HIV-1 Env of pseudovirus 231966.c02 (HIV-1)
[15] = target: HIV-1 Env of pseudovirus WITO4160.33 (HIV-1)
[16] = target: HIV-1 envelope spike of pseudovirus 6535.3 (HIV-1)
[17] = target: HIV-1 envelope of pseudovirus T257-31 (HIV-1)
[18] = target: HIV-1 Env of pseudovirus T251-18 (HIV-1)
[19] = target: HIV-1 Env of pseudovirus HIV-0013095-2.11 (HIV-1)
[20] = target: HIV-1 envelope spike of pseudovirus PVO.4 (HIV-1)
[21] = target: HIV-1 envelope of pseudovirus BJOX009000.02.4 (HIV-1)
[22] = target: HIV-1 envelope of pseudovirus 3016.v5.c45 (HIV-1)
[23] = target: HIV-1 Env of pseudovirus CNE30 (HIV-1)
[24] = target: HIV-1 envelope of pseudovirus CNE20 (HIV-1)
[25] = target: HIV-1 envelope of pseudovirus Ce1086_B2 (HIV-1)
[26] = target: HIV-1 envelope of pseudovirus 3415.v1.c1 (HIV-1)
[27] = target: HIV-1 Env of pseudovirus Q769.d22 (HIV-1)
[28] = target: HIV-1 envelope of pseudovirus AC10.0.29 (HIV-1)
[29] = target: HIV-1 Env of pseudovirus T278-50 (HIV-1)
[30] = target: HIV-1 Env of pseudovirus 1054_07_TC4_1499 (HIV-1)
[31] = target: HIV-1 envelope of pseudovirus 249M B10 (HIV-1)
[32] = target: HIV-1 envelope of pseudovirus CAP45.2.00.G3 (HIV-1)
[33] = target: HIV-1 Env of pseudovirus X1254_c3 (HIV-1)
[34] = target: HIV-1 envelope of pseudovirus Q451.e2 (HIV-1)
[35] = target: HIV-1 envelope of pseudovirus ZM197M.PB7 (HIV-1)
[36] = target: HIV-1 envelope of pseudovirus ZM135M.PL10a (HIV-1)
[37] = target: HIV-1 Env of pseudovirus Ce704809221_1B3 (HIV-1)
[38] = target: HIV-1 envelope of pseudovirus ZM249M.PL1 (HIV-1)
[39] = target: HIV-1 Env of pseudovirus 928-28 (HIV-1)
[40] = target: HIV-1 Env of pseudovirus C4118.c09 (HIV-1)
[41] = target: HIV-1 Env of pseudovirus Du172.17 (HIV-1)
[42] = target: HIV-1 Env of pseudovirus 89-F1_2_25 (HIV-1)
[43] = target: HIV-1 Env of pseudovirus 62357_14_03_4589 (HIV-1)
[44] = target: HIV-1 envelope of pseudovirus X1193_c1 (HIV-1)
[45] = target: HIV-1 envelope of pseudovirus REJO4541.67 (HIV-1)
[46] = target: HIV-1 Env of pseudovirus HIV-16055-2.3 (HIV-1)
[47] = target: HIV-1 Env of pseudovirus CNE21 (HIV-1)
[48] = target: HIV-1 envelope of pseudovirus SC422661.8 (HIV-1)
[49] = target: HIV-1 Env of pseudovirus ZM214M.PL15 (HIV-1)
[50] = target: HIV-1 envelope of pseudovirus HIV-16055-2.3 (HIV-1)

Sequence of 10-1074 (antibody) (VH): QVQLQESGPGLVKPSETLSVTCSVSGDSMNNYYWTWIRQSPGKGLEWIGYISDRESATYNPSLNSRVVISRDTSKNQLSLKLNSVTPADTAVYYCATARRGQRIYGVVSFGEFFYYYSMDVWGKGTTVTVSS
Sequence of 10-1074 (antibody) (V domain): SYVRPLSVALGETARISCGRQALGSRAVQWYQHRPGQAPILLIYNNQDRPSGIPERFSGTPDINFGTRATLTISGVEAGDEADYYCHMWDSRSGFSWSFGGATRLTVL

For 10-1074 (antibody), the IC50 (TZM-bl neutralization) [1] was 0.131 µg/mL, the IC80 (TZM-bl neutralization) [2] was 0.021 µg/mL and the IC50 (TZM-bl neutralization) [3] was > 50 µg/mL. The IC80 (TZM-bl neutralization) [4] was 0.048 µg/mL, the IC50 (TZM-bl neutralization) [5] was > 50 µg/mL and the IC80 (TZM-bl neutralization) [6] was > 50 µg/mL. The IC50 (TZM-bl neutralization) [7] was > 50 µg/mL, the IC80 (TZM-bl neutralization) [8] was 0.101 µg/mL and the IC80 (TZM-bl neutralization) [9] was > 50 µg/mL. The IC80 (TZM-bl neutralization) [10] was 0.111 µg/mL, the IC50 (TZM-bl neutralization) [11] was 0.363 µg/mL and the IC80 (TZM-bl neutralization) [12] was > 50 µg/mL. For the same substance, the IC50 (TZM-bl neutralization) [13] was > 50 µg/mL, the IC80 (TZM-bl neutralization) [14] was > 50 µg/mL and the IC80 (TZM-bl neutralization) [15] was 2.11 µg/mL. For the same substance, the IC50 (TZM-bl neutralization assay) [16] was 0.007 µg/mL, the IC80 (TZM-bl neutralization assay) [16] was 0.044 µg/mL and the IC50 (TZM-bl neutralization) [17] was > 50 µg/mL. The IC80 (TZM-bl neutralization) [18] was 7.39 µg/mL, the IC80 (TZM-bl neutralization) [19] was > 50 µg/mL and the IC50 (TZM-bl neutralization assay) [20] was 0.178 µg/mL. The IC80 (TZM-bl neutralization assay) [20] was 0.766 µg/mL, the IC50 (TZM-bl neutralization) [21] was > 50 µg/mL and the IC50 (TZM-bl neutralization) [22] was > 50 µg/mL. For the same substance, the IC80 (TZM-bl neutralization) [23] was 1.2 µg/mL, the IC50 (TZM-bl neutralization) [24] was < 0.001 µg/mL and the IC50 (TZM-bl neutralization) [25] was > 50 µg/mL. The IC50 (TZM-bl neutralization) [26] was > 50 µg/mL, the IC80 (TZM-bl neutralization) [27] was > 50 µg/mL and the IC50 (TZM-bl neutralization) [28] was 0.022 µg/mL. The IC80 (TZM-bl neutralization) [29] was 18.3 µg/mL, the IC80 (TZM-bl neutralization) [30] was 0.563 µg/mL and the IC50 (TZM-bl neutralization) [31] was > 50 µg/mL. For the same substance, the IC50 (TZM-bl neutralization) [32] was > 50 µg/mL, the IC80 (TZM-bl neutralization) [33] was 0.297 µg/mL and the IC50 (TZM-bl neutralization) [34] was > 50 µg/mL. The IC50 (TZM-bl neutralization) [35] was > 50 µg/mL, the IC50 (TZM-bl neutralization) [36] was 0.069 µg/mL and the IC80 (TZM-bl neutralization) [37] was 0.696 µg/mL. The IC50 (TZM-bl neutralization) [38] was > 50 µg/mL, the IC80 (TZM-bl neutralization) [39] was 4.7 µg/mL and the IC80 (TZM-bl neutralization) [40] was > 50 µg/mL. For the same substance, the IC80 (TZM-bl neutralization) [41] was 0.43 µg/mL, the IC80 (TZM-bl neutralization) [42] was > 50 µg/mL and the IC80 (TZM-bl neutralization) [43] was > 50 µg/mL. For the same substance, the IC50 (TZM-bl neutralization) [44] was 0.083 µg/mL, the IC50 (TZM-bl neutralization) [45] was > 50 µg/mL and the IC80 (TZM-bl neutralization) [46] was > 50 µg/mL. The IC80 (TZM-bl neutralization) [47] was 0.181 µg/mL, the IC50 (TZM-bl neutralization) [48] was 0.091 µg/mL and the IC80 (TZM-bl neutralization) [49] was 2.37 µg/mL. For the same substance, the IC50 (TZM-bl neutralization) [50] was > 50 µg/mL.

For PGT121 (antibody), the IC50 (TZM-bl neutralization) [1] was 0.921 µg/mL, the IC80 (TZM-bl neutralization) [2] was 0.043 µg/mL and the IC50 (TZM-bl neutralization) [3] was > 50 µg/mL. For the same substance, the IC80 (TZM-bl neutralization) [4] was 0.406 µg/mL, the IC50 (TZM-bl neutralization) [5] was > 50 µg/mL and the IC80 (TZM-bl neutralization) [6] was > 50 µg/mL. For the same substance, the IC50 (TZM-bl neutralization) [7] was > 50 µg/mL, the IC80 (TZM-bl neutralization) [8] was 0.11 µg/mL and the IC80 (TZM-bl neutralization) [9] was > 50 µg/mL. For the same substance, the IC80 (TZM-bl neutralization) [10] was 0.287 µg/mL, the IC50 (TZM-bl neutralization) [11] was 0.101 µg/mL and the IC80 (TZM-bl neutralization) [12] was > 50 µg/mL. The IC50 (TZM-bl neutralization) [13] was > 50 µg/mL, the IC80 (TZM-bl neutralization) [14] was > 50 µg/mL and the IC80 (TZM-bl neutralization) [15] was 6.01 µg/mL. For the same substance, the IC50 (TZM-bl neutralization assay) [16] was 0.007 µg/mL, the IC80 (TZM-bl neutralization assay) [16] was 0.041 µg/mL and the IC50 (TZM-bl neutralization) [17] was > 50 µg/mL. For the same substance, the IC80 (TZM-bl neutralization) [18] was > 50 µg/mL, the IC80 (TZM-bl neutralization) [19] was > 50 µg/mL and the IC50 (TZM-bl neutralization assay) [20] was 0.147 µg/mL. The IC80 (TZM-bl neutralization assay) [20] was 1.1 µg/mL, the IC50 (TZM-bl neutralization) [21] was 3.63 µg/mL and the IC50 (TZM-bl neutralization) [22] was > 50 µg/mL. For the same substance, the IC80 (TZM-bl neutralization) [23] was 0.559 µg/mL, the IC50 (TZM-bl neutralization) [24] was 0.002 µg/mL and the IC50 (TZM-bl neutralization) [25] was < 0.001 µg/mL. For the same substance, the IC50 (TZM-bl neutralization) [26] was > 50 µg/mL, the IC80 (TZM-bl neutralization) [27] was > 50 µg/mL and the IC50 (TZM-bl neutralization) [28] was 0.037 µg/mL. For the same substance, the IC80 (TZM-bl neutralization) [29] was > 50 µg/mL, the IC80 (TZM-bl neutralization) [30] was 0.696 µg/mL and the IC50 (TZM-bl neutralization) [31] was > 50 µg/mL. The IC50 (TZM-bl neutralization) [32] was 0.086 µg/mL, the IC80 (TZM-bl neutralization) [33] was 0.199 µg/mL and the IC50 (TZM-bl neutralization) [34] was > 50 µg/mL. For the same substance, the IC50 (TZM-bl neutralization) [35] was > 50 µg/mL, the IC50 (TZM-bl neutralization) [36] was 0.576 µg/mL and the IC80 (TZM-bl neutralization) [37] was 0.492 µg/mL. For the same substance, the IC50 (TZM-bl neutralization) [38] was > 50 µg/mL, the IC80 (TZM-bl neutralization) [39] was > 50 µg/mL and the IC80 (TZM-bl neutralization) [40] was > 50 µg/mL. For the same substance, the IC80 (TZM-bl neutralization) [41] was 0.89 µg/mL, the IC80 (TZM-bl neutralization) [42] was > 50 µg/mL and the IC80 (TZM-bl neutralization) [43] was 45.6 µg/mL. The IC50 (TZM-bl neutralization) [44] was 0.045 µg/mL, the IC50 (TZM-bl neutralization) [45] was 3.61 µg/mL and the IC80 (TZM-bl neutralization) [46] was 4.29 µg/mL. The IC80 (TZM-bl neutralization) [47] was 0.061 µg/mL, the IC50 (TZM-bl neutralization) [48] was 0.101 µg/mL and the IC80 (TZM-bl neutralization) [49] was 3.15 µg/mL. The IC50 (TZM-bl neutralization) [50] was 0.444 µg/mL.
